B1: Strep-RibH (enzyme, Bacillus subtilis, UniProt P11998 1-154, looked up)
chain: MNIIQGNLVGTGLKIGIVVGRFNDFITSKLLSGAEDALLRHGVDTNDIDVAWVPGAFEIPFAAKKMAETKKYDAIITLGTVIRGATTHYDYVCNEAAKGIAQAANTTGVPVIFGIVTTENIEQAIERAGTKAGNKGVDCAVSAIEMANLNRSFE
notes: RibH, lumazine synthase of Bacillus subtilis; printed mass of Strep-RibH 17.9 kDa; Cloning and purification are described in the Supplementary Data; The printed mass fits the whole protein with its tag (surmised); also called wt-like Strep-RibH; source: E. coli BL21 (DE3) Star, purified (Strep-Tactin, SEC); also coproduced with His6-RibE; not shown: Strep tag, N-terminal, kept; copies: 60
B2: Strep-RibH^K29E (enzyme, Bacillus subtilis, UniProt P11998 1-154, looked up)
chain: MNIIQGNLVGTGLKIGIVVGRFNDFITSELLSGAEDALLRHGVDTNDIDVAWVPGAFEIPFAAKKMAETKKYDAIITLGTVIRGATTHYDYVCNEAAKGIAQAANTTGVPVIFGIVTTENIEQAIERAGTKAGNKGVDCAVSAIEMANLNRSFE
notes: RibH, lumazine synthase of Bacillus subtilis, with K29E; printed mass 17.9 kDa; Cloning and purification are described in the Supplementary Data; source: E. coli BL21 (DE3) Star, purified (Strep-Tactin, SEC); also coproduced with His6-RibE; not shown: Strep tag, N-terminal, kept; copies: 60
B3: Strep-RibH^K29R (enzyme, Bacillus subtilis, UniProt P11998 1-154, looked up)
chain: MNIIQGNLVGTGLKIGIVVGRFNDFITSRLLSGAEDALLRHGVDTNDIDVAWVPGAFEIPFAAKKMAETKKYDAIITLGTVIRGATTHYDYVCNEAAKGIAQAANTTGVPVIFGIVTTENIEQAIERAGTKAGNKGVDCAVSAIEMANLNRSFE
notes: RibH, lumazine synthase of Bacillus subtilis, with K29R; printed mass 17.9 kDa; Cloning and purification are described in the Supplementary Data; the tag is likely N-terminal as in Strep-RibH (surmised); source: E. coli BL21 (DE3) Star, purified (Strep-Tactin, SEC); also coproduced with His6-RibE; copies: 60

Molecular target: the molecule itself
Assay: pull-down + SEC; coproduced in E. coli BL21 Star, purified by Strep-Tactin affinity chromatography followed by SEC; pooled 60-mer peak (~1 MDa) analysed by SDS-PAGE

Protein	stoichiometry N
B1	60
B2	60
B3	60

Reference: article PMC9048828, “The Acetyltransferase RibT From Bacillus subtilis Affects in vivo Dynamics of the Multimeric Heavy Riboflavin Synthase Complex” (Frontiers in Microbiology, 2022)
